In patent US20230243070A1 (Molecular Partners, published 2023):
Changes are numbered by the printed parent chain. Read-outs that look alike come from different tables or passages of the source.

Tests used:
[1] = biological target: T1, EBNApMHC (HLA-A*0201:EBNA-1), biotinylated recombinant complex (human; Epstein Barr virus); experiment: SPR (ProteOn), biotinylated EBNApMHC on the chip
[2] = biological target: T2, NYESOAApMHC (HLA-A*0201:NYESO1-9VAA), biotinylated recombinant complex (human)
[3] = biological target: T3, NYESOpMHC on T2 cells pulsed with NY-ESO-1-9V (157-165) peptide
[4] = biological target: T4, NYESOpMHC (HLA-A*0201:NYESO1-9V), biotinylated recombinant complex (human)
[5] = biological target: T1, EBNApMHC (HLA-A*0201:EBNA-1), …
[6] = biological target: T4, NYESOpMHC (HLA-A*0201:NYESO1-9V), …; experiment: SPR (ProteOn), biotinylated pMHC on NLC chip, PBS with Tween
[7] = biological target: T2, NYESOAApMHC (HLA-A*0201:NYESO1-9VAA), …; experiment: SPR (ProteOn), biotinylated NYESOAApMHC on the chip
[8] = biological target: T1, EBNApMHC (HLA-A*0201:EBNA-1), …; experiment: SPR (ProteOn), biotinylated pMHC on NLC chip
[9] = biological target: T2, NYESOAApMHC (HLA-A*0201:NYESO1-9VAA), …; experiment: SPR (ProteOn), biotinylated pMHC on NLC chip
[10] = biological target: T3, NYESOpMHC on T2 cells pulsed with …; remark: listed apart in the source
[11] = biological target: T5, MAGEA3pMHC, biotinylated recombinant complex (HLA-A*0101, MAGE-A3 peptide) (human); experiment: ribosome display selection, crude extract HTRF
T5 construct: also called MAGE-A3 peptide-MHC complex

[12] = biological target: T3, NYESOpMHC on T2 cells pulsed with …; experiment: flow cytometry on T2 cells pulsed with NY-ESO-1-9V (157-165) peptide
[13] = biological target: T6, HBVc18pMHC, biotinylated recombinant complex (HLA-A*0201: HBVc18) (human; Hepatitis B virus); experiment: SPR (ProteOn)
T6 construct: also called HBVc18 peptide-MHC complex

B1: DARPin® protein #21 (designed binder)
chain: MRGSHHHHHHGSDLGKKLLQAARAGQLDEVRELLKAGADVNAKDLIGVTPLHLAAFSGHLEIVEVLLKASADVNAKDVSGRTPLHVAAKHGHLEIVEVLLKAGADVNAKDLIGFTPLHLAAQFGHLEIVEVLLKAGADVNAQDKSGKTPADLAARAGHQDIAEVLQKAA
binding result [1]: no binding | KD (fit header over a trace without response) [2]: 0.846 pM | Ka (fit header over a trace without response) [2]: 8.23e+06 M⁻¹ s⁻¹ | kd (fit header over a trace without response) [2]: 6.97e-06 s⁻¹ | EC50 [3]: 4.5 nM | koff [4]: 0.000473 s⁻¹ | kon [4]: 549000 M⁻¹ s⁻¹ | KD (fit header over a trace without response) [5]: 3.05 mM | Ka (fit header over a trace without response) [5]: 2.78e-08 M⁻¹ s⁻¹ | kd (fit header over a trace without response) [5]: 8.5e-11 s⁻¹ | Kd [6]: 0.861 nM | binding result [7]: no binding

B2: DARPin® protein #20 (designed binder)
chain: MRGSHHHHHHGSDLGKKLLQAARAGQLDEVRELLKAGADVNAKDQSGATPLHLAAFRGHLEIVEVLLKAGADVNAKDAAGYTPLHIAAVYGHLEIVEVLLKAGADVNAKDSAGETPLHLAAYAGHLEIVEVLLKAGADVNAQDKSGKTPADLAARAGHQDIAEVLQKAA
EC50 [3]: 20.6 nM | binding result [8]: no binding (tested: 3.7 nM to 300 nM, or 250 nM single trace) | binding result [9]: no binding | Kd [6]: 5.79 nM

B3: DARPin® protein #22 (designed binder)
chain: B2 chain with Q45A, S46I, A48F, R57S, A78V, I86V, V89L, E94V, S111K, Y122F
EC50 (read off the curve) [10]: ~3 nM | EC50 [3]: 3.7 nM | binding result [8]: no binding (tested: 3.7 nM to 300 nM, or 250 nM single trace) | binding result [9]: no binding | Kd [6]: 0.0685 nM

B4: SEQ ID NO 169 (designed binder)
chain: GSDLGKKLLQAARAGQLDEVRELLKAGADVNAKDHWGKTPLHLAAYEGHLEIVEVLLKAGADVNAKDLFGLTPLHLAAIEGHLEIVEVLLKAGADVNAKDSFGYTPLHVAAQVGHLEIVEVLLKAGADVNAQDKSGKTPADLAARAGHQDIAEVLQKAA
binding result [11]: binds

B5: SEQ ID NO 172 (designed binder)
chain: GSDLGKKLLQAARAGQLDEVRELLKAGADVNAKDEWGATPLHLAAYAGHLEIVEVLLKAGADVNAKDRWGLTPLHVAAVEGHLEIVEVLLKAGADVNAKDIEGETPLHIAAFTGHLEIVEVLLKAGADVNAQDKSGKTPADLAARAGHQDVAEVLQKAA
binding result [11]: binds

B6: BP DARPin® protein #21/#22 (designed binder)
chain: GSDLGKKLLQAARAGQLDEVRELLKAGADVNAKDLIGVTPLHLAAFSGHLEIVEVLLKASADVNAKDVSGRTPLHVAAKHGHLEIVEVLLKAGADVNAKDLIGFTPLHLAAQFGHLEIVEVLLKAGADVNAQDKSGKTPADLAARAGHQDIAEVLQKAAGSPTPTPTTPTPTPTTPTPTPTGSDLGKKLLQAARAGQLDEVRELLKAGADVNAKDAIGFTPLHLAAFSGHLEIVEVLLKAGADVNAKDVAGYTPLHVAALYGHLVIVEVLLKAGADVNAKDKAGETPLHLAAFAGHLEIVEVLLKAGADVNAQDKSGKTPADLAARAGHQDIAEVLQKAA
EC50 [12]: 1.4 nM

B7: DARPin® protein comprising SEQ ID NO 220 (linked to a CD3-specific binding agent) (designed binder)
chain: GSDLGHKLLFAASAGQDDEVRILLAAGADVNAKDESGQTPLHYAAFVGHLEIVEVLLKAGADVNAKDQWGHTPLHVAATFGHLEIVEVLLKAGADVNAQDTWGTTPADLAATFGHEDIAEVLQKAA
Kd [13]: 4.65 nM

B8: DARPin® protein comprising SEQ ID NO 224 (linked to a CD3-specific binding agent) (designed binder)
chain: B7 chain with H6F, F10E, S13L, A14E
Kd [13]: 0.736 nM

B9: DARPin® protein comprising SEQ ID NO 228 (linked to a CD3-specific binding agent) (designed binder)
chain: B7 chain with H6W, F10H, S13T, A14T
Kd [13]: 4.72 nM

B10: DARPin® protein comprising SEQ ID NO 229 (linked to a CD3-specific binding agent) (designed binder)
chain: B7 chain with H6S, F10Y, S13I, A14S, E120V
Kd [13]: 1.03 nM

B11: DARPin® protein comprising SEQ ID NO 221 (linked to a CD3-specific binding agent) (designed binder)
chain: GSDLGQKLLLAAAIGQDDEVRILLAAGADVNAKDESGHTPLHYAAHVGHLEIVEVLLKAGDVNAKDHRGFTPLHVAAQIGHLEIVEVLLKAGADVNAQDNWGITPADLAAWWGHEDIAEVLQKAA
Kd [13]: 0.369 nM

B12: DARPin® protein comprising SEQ ID NO 222 (linked to a CD3-specific binding agent) (designed binder)
chain: GSDLGYKLLTAAIVGQDDEVRILLAAGADVNAKDQSGLTPLHLAAAYGHLEIVEVLLKAGADVNAKDKHGRTPLHLAALEGHLEIVEVLLKAGADVNAQDQFGITPADLAAAVGHEDIAEVLQKAA
Kd [13]: 7.15 nM

B13: DARPin® protein comprising SEQ ID NO 227 (linked to a CD3-specific binding agent) (designed binder)
chain: B12 chain with Y6Q
Kd [13]: 7.1 nM

B14: DARPin® protein comprising SEQ ID NO 225 (linked to a CD3-specific binding agent) (designed binder)
chain: GSDLGIKLLFAANFGQDDEVRILLAAGADVNAKDQSGRTPLHLAALWGHLEIVEVLLKAGADVNAKDVFGLTPLHIAATFGHLEIVEVLLKAGVDVNAQDYTGHTPADLAALIGHEDIAEVLQKAA
Kd [13]: 9.23 nM

B15: DARPin® protein comprising SEQ ID NO 226 (linked to a CD3-specific binding agent) (designed binder)
chain: GSDLGKKLLSAAQSGQDDEVRILLGAGADVNAKDKWGHTPLHLAAVKGHLEIAEVLLKAGADVNAKDEWGSTPLHLAASQGHLEIVEVLLKAGADVNAKDKKGATPLHLAALVGHLEIVEVLLKAVADVNAQDKSGKTPADLAARAGHQDIAEVLQKAA
Kd [13]: 13.8 nM

B16: DARPin® protein comprising SEQ ID NO 230 (linked to a CD3-specific binding agent) (designed binder)
chain: GSDLGKKLLQAARAGQLDEVHELLKAGADVNAKDQHGKTPMHLAAQIGHLEIVEVLLKAGADVNAKDHIGWTPLHLAASVGHLEIVEVLLKAGADVNAKDQEGWTPLHVAAQLGHLEIVEVLLKAGADVNAQDKSGKTPADLAARAGHQDSAEVLQKAA
Kd [13]: 9.33 nM

B17: DARPin® protein #26 (designed binder)
chain: MRGSHHHHHHGSDLGEKLLFAAFIGQDDEVRILLAAGADVNAKDEYGHTPLHAAAQHGHLEIVEVLLKAGADVNAKDQFGLTPLHIAAIFGHLEIVEVLLKAGADVNAQDHAGYTPADLAAWQGHEDIAEVLQKAA
binding result [8]: no binding (tested: 3.7 nM to 300 nM, or 250 nM single trace) | binding result [9]: no binding | Kd [6]: 1.29 nM

B18: DARPin® protein #27 (designed binder)
chain: MRGSHHHHHHGSDLGFKLLQAAHYGQDDEVRILLAAGADVNAKDEYGRTPLHHAALKGHLEIVEVLLKAGADVNAKDEFGTTPLHYAAIFGHLEIVEVLLKAGADVNAQDSSGFTPADLAALVGHEDIAEVLQKAA
binding result [8]: no binding (tested: 3.7 nM to 300 nM, or 250 nM single trace) | binding result [9]: no binding | Kd [6]: 0.494 nM

B19: SEQ ID NO 157 (designed binder)
chain: GSDLGYKLLYAALFGQDDEVRILLAAGADVNAKDYFGKTPLHIAAYYGHLEIVEVLLKAGADVNAKDRYGITPLHLAALEGHLEIVEVLLKAGADVNAQDTDGITPADLAAWEGHEDIAEVLQKAA
binding result [11]: binds

B20: DARPin® protein #28 (designed binder)
chain: MRGSHHHHHHGSDLGQKLLKAAALGQDDEVRDLLKAGADVNAKDYQGQTPLHLAAWTGHLEIVEVLLKAGADVNAKDHFGYTPLHIAAHFGHLEIVEVLLKAGADVNAQDAAGQTPADLAAAEGHEDIAEVLQKAA
binding result [8]: no binding (tested: 3.7 nM to 300 nM, or 250 nM single trace) | binding result [9]: no binding | Kd [6]: 2.57 nM

B21: SEQ ID NO 160 (designed binder)
chain: GSDLGKKLLQAAQAGQDDEVRELLKAGADVNAKDEWGRTPLHVAAYWGHLEIVEVLLKAGADVNAKDSFGLTPLHLAAIEGHLEIVEVLLKAGADVNAQDQQGATPADLAALLGHEDIAEVLQKAA
binding result [11]: binds

B22: SEQ ID NO 165 (designed binder)
chain: GSDLGEKLLQAALEGQDDEVRELLKAGADVNAKDLVGWTPLHIAAYRGHLEIVEVLLKAGADVNAKDWVGLTPLHLAAIEGHLEIVEVLLKAGADVNAQDREGKTPADLAALLGHEDIAEVLQKAA
binding result [11]: binds

B23: SEQ ID NO 167 (designed binder)
chain: GSDLGKKLLQAARAGQLDEVRELLKAGADVNAKDSSGWTPLHLAAYTGHLEIVEVLLKAGADVNAKDQWGLTPLHLAALEGHLEIVEVLLKAGADVNAKDHTGKTPLHLAAQQGHLEIVEVLLKAGADVNAQDKSGKTPADLAARAGHQDIAEVLQKAA
binding result [11]: binds
